This is an account of results in publication PMC7183766.

The experiment deals with SpirNT(A*)-biotin (on streptavidin beads) (Drosophila melanogaster) (UniProt Q9U1K1). Description: TIRF microscopy of actin filaments on protein-coated beads.
SpirNT(A*)-biotin (on streptavidin beads) (Drosophila melanogaster), sequence (Q9U1K1 1-490): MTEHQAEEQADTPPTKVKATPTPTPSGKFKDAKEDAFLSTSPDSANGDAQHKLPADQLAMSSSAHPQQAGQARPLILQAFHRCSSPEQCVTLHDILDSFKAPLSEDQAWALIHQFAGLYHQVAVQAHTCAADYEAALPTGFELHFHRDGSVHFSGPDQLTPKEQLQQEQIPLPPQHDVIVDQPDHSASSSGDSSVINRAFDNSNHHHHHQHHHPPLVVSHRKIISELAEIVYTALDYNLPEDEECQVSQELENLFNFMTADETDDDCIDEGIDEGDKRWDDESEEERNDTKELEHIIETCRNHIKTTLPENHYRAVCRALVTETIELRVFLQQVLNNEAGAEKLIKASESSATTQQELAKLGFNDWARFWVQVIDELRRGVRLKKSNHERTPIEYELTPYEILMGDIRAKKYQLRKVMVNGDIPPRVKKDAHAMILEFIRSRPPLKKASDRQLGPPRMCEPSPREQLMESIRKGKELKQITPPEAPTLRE

On to “actin filaments (Acanthamoeba castellani actin) (natural protein)”, for which the off-rate (koff) – broadly, the rate constant with which the complex falls apart – came to 0.011 s⁻¹.
